US20070276130A1 (CHILDREN S MEDICAL CENTER, published 2007)
Ends that are not written are not given here.

What was measured:
[1] = biological target: VP5CT of rhesus rotavirus (RRV) VP4 (rhesus rotavirus (RRV)) (UniProt P12473); experiment: X-ray crystal structure
[2] = biological target: the molecule itself; experiment: X-ray crystal structure
[3] = biological target: the molecule itself; experiment: X-ray crystal structure (crystal packing)
[4] = biological target: T1, DS-1 VP8* core with residues 60-64 mutated to SGSGG (human rotavirus strain DS-1, UniProt P11196 65-223 (Rotavirus A entry)); experiment: two-dimensional 15N-1H HSQC NMR; no change in the chemical shifts of the 15N valines of the peptide
T1 construct: That conversion is mine; also called modified DS-1 VP8* core; unlabeled VP8* core
T1 chain: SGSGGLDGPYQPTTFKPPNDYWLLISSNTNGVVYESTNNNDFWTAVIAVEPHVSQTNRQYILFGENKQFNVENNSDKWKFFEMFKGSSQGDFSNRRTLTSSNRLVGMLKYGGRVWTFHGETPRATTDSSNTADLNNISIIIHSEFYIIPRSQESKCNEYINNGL

Q: How did the share of the surface area of each subunit buried by trimer contacts [1] turn out when “VP5CT of rhesus rotavirus (RRV) VP4 (from UniProt P12473 248-525)” was run?
A: 25.8%

Q: And the surface area of each subunit buried by trimer contacts [1]?
A: 3960 Å2

B1: RRV VP5* antigen domain (residues 247-479 of rhesus rotavirus VP4) (other)
chain: RAQANEDIVVSKTSLWKEMQYNRDITIRFKFASSIVKSGGLGYKWSEISFKPANYQYTYTRDGEEVTAHTTCSVNGMNDFNFNGGSLPTDFVISRYEVIKENSYVYVDYWDDSQAFRNMVYVRSLAANLNSVICTGGDYSFALPVGQWPVMTGGAVSLHSAGVTLSTQFTDFVSLNSLRFRFRLTVEEPSFSITRTRVSRLYGLPAANPNNGKEYYEVAGRFSLISLVPSNDD
notes: Expressed in Sf-9 cells from a baculovirus with an N-terminal histidine tag and a thrombin site; It crystallised both as a trimer and as a dimer, so copies is left open; also called VP5Ag; VP5* antigen (R247-D479)
Q: Does B1 bind [2]?
A: binds

B2: DS-1 VP8* core (residues 60-223 of DS-1 VP4) (other)
chain: TVEPVLDGPYQPTTFKPPNDYWLLISSNTNGVVYESTNNNDFWTAVIAVEPHVSQTNRQYILFGENKQFNVENNSDKWKFFEMFKGSSQGDFSNRRTLTSSNRLVGMLKYGGRVWTFHGETPRATTDSSNTADLNNISIIIHSEFYIIPRSQESKCNEYINNGL
notes: There are eight molecules in the asymmetric unit of the P1 crystal
Q: Does B2 bind [3]?
A: binds

B3: peptide TVEPVS (DS-1 VP4 residues 60-64 plus a C-terminal serine) (peptide)
peptide: TVEPVS
modifications: also: 15N-labelled on valine, position not given here
notes: also called leader peptide; assayed peptide
Q: Does B3 bind [4]?
A: no binding
